Measurements reported in patent US20240376224A1 (University of California, published 2024).
One block for each binder: values may come before it.

Legend:
c-CDCP1-Fc (Cut 2) = target: T1, c-CDCP1-Fc (Cut 2) (human, UniProt Q9H5V8 30-368; Q9H5V8 369-667); test: BLI (Octet RED384) on c-CDCP1-Fc (Cut2); antibody concentration not given
T1 construct: Co-transfection of NTF and CTF-Fc plasmids; not shown: Fc domain
T1 sequence 1: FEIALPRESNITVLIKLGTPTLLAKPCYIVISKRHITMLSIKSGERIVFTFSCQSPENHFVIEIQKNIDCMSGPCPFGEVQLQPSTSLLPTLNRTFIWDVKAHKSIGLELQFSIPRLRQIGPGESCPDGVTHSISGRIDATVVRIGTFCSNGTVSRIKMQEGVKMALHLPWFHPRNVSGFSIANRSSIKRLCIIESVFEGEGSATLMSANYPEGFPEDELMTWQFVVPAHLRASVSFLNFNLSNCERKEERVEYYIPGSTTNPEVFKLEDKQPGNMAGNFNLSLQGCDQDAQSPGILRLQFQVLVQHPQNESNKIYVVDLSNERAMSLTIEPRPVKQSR
T1 sequence 2: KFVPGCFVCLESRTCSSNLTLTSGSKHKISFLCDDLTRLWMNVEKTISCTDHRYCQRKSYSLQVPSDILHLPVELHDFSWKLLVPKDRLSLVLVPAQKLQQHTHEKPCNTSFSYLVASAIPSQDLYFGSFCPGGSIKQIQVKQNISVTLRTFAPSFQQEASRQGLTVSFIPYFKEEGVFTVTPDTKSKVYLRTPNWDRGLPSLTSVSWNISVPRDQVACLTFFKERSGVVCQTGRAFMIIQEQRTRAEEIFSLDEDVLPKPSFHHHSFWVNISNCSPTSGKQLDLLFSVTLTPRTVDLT
Experimental: BLI experiments were performed using an Octet RED384 instrument (ForteBio). Biotinylated proteins were immobilized on a streptavidin (SA) biosensor and His-tagged proteins were immobilized on a Ni-NTA biosensor. Different concentrations of analyte in PBS pH 7.4+0.05% Tween-20+0.2% BSA (PBSTB) were used as analyte. Affinities (KDS) were calculated from a global fit (1:1) of the data using the Octet RED384 software.
Furthermore, variants of CL03 were evaluated for binding to c-CDCP1-Fc (Cut2) by BLI assays using an Octet RED384 instrument (ForteBio) (FIG. 16A) using a procedure as generally described in Example 1. The variants also were evaluated by SEC-based analysis (FIG. 16B) as generally described in Example 1. The variants evaluated by BLI assays and SEC-based analysis included the variants referred to as IgG87, IgG89, IgG94, IgG97, IgG101 (CL03 IgG H1-NtoD H3-MtoA), and IgG102.

[1] = target: T2, c-CDCP1 Cut 2 N-terminal fragment (NTF) (human, UniProt Q9H5V8 30-368); test: co-transfection of NTF and CTF plasmids (Cut 2), Ni-NTA co-purification
T2 construct: also called NTF (Cut 2)
T2 sequence: T1 sequence 1
From the text: (§1) In the present example, CDCP1 antigen with endogenous cut sites was generated. Generation of the CDCP1 antigen proceeded by co-transfection of the two fragments on separate plasmids. One set of plasmids encoding the NTF of CDCP1, ending after the PI residue of the 3 different cut sites, was designed; and a second set of plasmids encoding the C-terminal ectodomain of CDCP1 starting at the P1′ residue of the 3 different cut sites (c-CDCP1 Cut 1, Cut 2, Cut 3), was designed (FIG. 3A). Uncleaved CDCP1 ectodomain was generated with a single plasmid encoding the entire ectodomain (fl-CDCP1). Following co-transfection of pairs of NTF and CTF plasmids, an intact cleaved CDCP1 complex was purified by Ni-NTA affinity chromatography for all of the NTF+CTF cut variants (FIG. 3B). In parallel, fl-CDCP1 and c-CDCP1 ectodomains fused to an Fc domain were generated for use in phage selection, using the same co-transfection strategy (FIG. 3H-FIG. 3L). Three pairs of NTF and CTF-Fc plasmids were made that ends or starts at the 3 different cut sites of cleaved CDCP1. An SDS-PAGE gel of fl-CDCP1-Fc and c-CDCP1-Fc (Cut 1, Cut 2, Cut 3) was run (FIG. 3I).

[2] = target: T3, c-CDCP1 Cut 3 N-terminal fragment (NTF) (human, UniProt Q9H5V8 30-369); test: co-transfection of NTF and CTF plasmids (Cut 3), Ni-NTA co-purification
T3 construct: also called NTF (Cut 3)
T3 sequence: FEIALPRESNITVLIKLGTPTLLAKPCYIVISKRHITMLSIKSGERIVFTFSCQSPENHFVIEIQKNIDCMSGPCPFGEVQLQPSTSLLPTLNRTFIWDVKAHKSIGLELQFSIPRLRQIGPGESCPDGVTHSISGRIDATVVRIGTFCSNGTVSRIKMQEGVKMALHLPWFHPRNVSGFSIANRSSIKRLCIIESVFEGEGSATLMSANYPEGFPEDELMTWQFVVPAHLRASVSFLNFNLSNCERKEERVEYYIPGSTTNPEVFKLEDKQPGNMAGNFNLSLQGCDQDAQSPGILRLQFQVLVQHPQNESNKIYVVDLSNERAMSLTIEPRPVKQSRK
From the text: as §1

[3] = target: T4, c-CDCP1 Cut 1 N-terminal fragment (NTF) (human, UniProt Q9H5V8 30-365); test: co-transfection of NTF and CTF plasmids (Cut 1), Ni-NTA co-purification
T4 construct: also called NTF (Cut 1)
T4 sequence: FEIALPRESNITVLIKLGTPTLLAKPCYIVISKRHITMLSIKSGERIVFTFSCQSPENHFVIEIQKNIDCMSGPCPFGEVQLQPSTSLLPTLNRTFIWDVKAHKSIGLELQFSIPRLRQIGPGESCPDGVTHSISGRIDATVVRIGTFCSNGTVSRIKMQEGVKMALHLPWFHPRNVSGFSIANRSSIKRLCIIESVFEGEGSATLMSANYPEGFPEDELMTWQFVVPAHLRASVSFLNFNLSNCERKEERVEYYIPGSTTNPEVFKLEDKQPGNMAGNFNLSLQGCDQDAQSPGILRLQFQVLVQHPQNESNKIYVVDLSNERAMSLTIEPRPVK
From the text: as §1

[4] = target: T5, mouse c-CDCP1 on Fc1245 cells (mouse) (UniProt Q5U462); test: flow cytometry on Fc1245 c-CDCP1 cells (FIG. 9B); FIG. 9B
T5 sequence 1: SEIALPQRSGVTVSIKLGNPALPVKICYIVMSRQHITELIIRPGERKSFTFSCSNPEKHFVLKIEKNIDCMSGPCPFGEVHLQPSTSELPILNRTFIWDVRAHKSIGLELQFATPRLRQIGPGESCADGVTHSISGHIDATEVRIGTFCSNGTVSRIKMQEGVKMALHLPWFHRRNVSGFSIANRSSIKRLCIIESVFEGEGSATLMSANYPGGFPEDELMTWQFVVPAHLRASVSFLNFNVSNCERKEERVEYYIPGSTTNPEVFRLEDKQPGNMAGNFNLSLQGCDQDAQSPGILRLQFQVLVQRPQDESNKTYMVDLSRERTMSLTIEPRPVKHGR
T5 sequence 2: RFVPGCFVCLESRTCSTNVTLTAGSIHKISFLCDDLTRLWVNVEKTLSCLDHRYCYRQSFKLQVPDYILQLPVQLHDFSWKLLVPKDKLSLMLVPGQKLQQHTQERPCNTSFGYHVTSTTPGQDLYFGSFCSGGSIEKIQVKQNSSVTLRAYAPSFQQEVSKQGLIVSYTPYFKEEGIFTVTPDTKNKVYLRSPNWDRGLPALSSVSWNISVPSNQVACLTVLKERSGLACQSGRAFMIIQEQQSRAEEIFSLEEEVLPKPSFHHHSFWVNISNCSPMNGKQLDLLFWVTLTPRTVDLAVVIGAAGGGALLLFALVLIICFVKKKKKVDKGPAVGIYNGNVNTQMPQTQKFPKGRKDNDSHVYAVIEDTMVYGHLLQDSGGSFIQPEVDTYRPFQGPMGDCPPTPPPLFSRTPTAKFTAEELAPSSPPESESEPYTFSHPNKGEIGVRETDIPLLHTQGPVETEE

[5] = target: T6, mouse c-CDCP1 (recombinant cleaved mouse CDCP1) (mouse, UniProt Q5U462 30-368; Q5U462 369-666, limits assumed); test: BLI (Octet), table of binding affinities to mCDCP1
T6 construct: Mouse antigens made were c-CDCP1-Fc (Cut 1) and (Cut 2); also called mouse cleaved CDCP1; cleaved mCDCP1
T6 sequence 1: T5 sequence 1
T6 sequence 2: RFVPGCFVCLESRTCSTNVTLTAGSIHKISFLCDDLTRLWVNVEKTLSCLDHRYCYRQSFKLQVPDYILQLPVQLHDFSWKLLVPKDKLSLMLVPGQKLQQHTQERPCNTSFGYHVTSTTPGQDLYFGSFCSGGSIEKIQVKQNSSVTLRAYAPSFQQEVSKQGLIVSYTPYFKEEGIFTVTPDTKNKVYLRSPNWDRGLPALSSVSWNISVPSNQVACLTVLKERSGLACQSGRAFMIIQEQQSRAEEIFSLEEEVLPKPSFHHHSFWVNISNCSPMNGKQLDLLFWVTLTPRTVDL

binding result (c-CDCP1-Fc (Cut 2)): binds
B1: IgG102 (antibody, V domains shown)
VH: EVQLVESGGGLVQPGGSLRLSCAASGFDFSSYSIHWVRQAPGKGLEWVASSYPYSGSTYYADSVKGRFTISADTSKNTAYLQMNSLRAEDTAVYYCARQSHSYYSHTWWVSYGMDYWGQGTLVTVSS
VL: DIQMTQSPSSLSASVGDRVTITCRASQSVSSAVAWYQQKPGKAPKLLIYSASSLYSGVPSRFSGSRSGTDFTLTISSLQPEDFATYYCQQSGQRPITFGQGTKVEIK

binding result [1]: binds
B2: c-CDCP1 Cut 2 C-terminal fragment (CTF) of the ectodomain (receptor)
chain: T1 sequence 2
notes: Tag for Ni-NTA purification not described; also called CTF (Cut 2)

binding result [2]: binds
B3: c-CDCP1 Cut 3 C-terminal fragment (CTF) of the ectodomain (receptor)
chain: FVPGCFVCLESRTCSSNLTLTSGSKHKISFLCDDLTRLWMNVEKTISCTDHRYCQRKSYSLQVPSDILHLPVELHDFSWKLLVPKDRLSLVLVPAQKLQQHTHEKPCNTSFSYLVASAIPSQDLYFGSFCPGGSIKQIQVKQNISVTLRTFAPSFQQEASRQGLTVSFIPYFKEEGVFTVTPDTKSKVYLRTPNWDRGLPSLTSVSWNISVPRDQVACLTFFKERSGVVCQTGRAFMIIQEQRTRAEEIFSLDEDVLPKPSFHHHSFWVNISNCSPTSGKQLDLLFSVTLTPRTVDLT
notes: Tag for Ni-NTA purification not described; also called CTF (Cut 3)

binding result [3]: binds
B4: c-CDCP1 Cut 1 C-terminal fragment (CTF) of the ectodomain (receptor)
chain: QSRKFVPGCFVCLESRTCSSNLTLTSGSKHKISFLCDDLTRLWMNVEKTISCTDHRYCQRKSYSLQVPSDILHLPVELHDFSWKLLVPKDRLSLVLVPAQKLQQHTHEKPCNTSFSYLVASAIPSQDLYFGSFCPGGSIKQIQVKQNISVTLRTFAPSFQQEASRQGLTVSFIPYFKEEGVFTVTPDTKSKVYLRTPNWDRGLPSLTSVSWNISVPRDQVACLTFFKERSGVVCQTGRAFMIIQEQRTRAEEIFSLDEDVLPKPSFHHHSFWVNISNCSPTSGKQLDLLFSVTLTPRTVDLT
notes: Tag for Ni-NTA purification not described; also called CTF (Cut 1)

EC50 [4]: 6.9 nM
Kd [5]: 0.8 nM
B5: IgG 58 (antibody, V domains shown)
VH: EVQLVESGGGLVQPGGSLRLSCAASGFNVYSYSIHWVRQAPGKGLEWVASISSSSGSTSYADSVKGRFTISADTSKNTAYLQMNSLRAEDTAVYYCARYYWDPWQYASYSYLAFDYWGQGTLVTVSS
VL: MTQSPSSLSASVGDRVTITCRASQSVSSAVAWYQQKPGKAPKLLIYSASSLYSGVPSRFSGSRSGTDFTLTISSLQPEDFATYYCQQTYSGPITFGQGTKVEIKR
notes: Mouse cleaved-CDCP1-specific antibody; also called Ab58; IgG 0058
